According to US20240239894A1 (AstraZeneca / MedImmune, published 2024):

Legend:
[1] = molecular target: T1, huBTNL3 (human, UniProt Q6UXE8 18-237, limits assumed); assay: ELISA
T1 construct: Sourced antigen; construct not described; also called Human BTNL3
T1 sequence (looked up): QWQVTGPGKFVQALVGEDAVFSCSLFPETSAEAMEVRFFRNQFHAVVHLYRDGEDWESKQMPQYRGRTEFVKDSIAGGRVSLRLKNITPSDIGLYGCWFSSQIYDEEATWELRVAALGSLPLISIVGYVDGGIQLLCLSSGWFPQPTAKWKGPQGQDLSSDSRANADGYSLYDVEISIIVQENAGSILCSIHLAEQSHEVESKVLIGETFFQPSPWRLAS

[2] = molecular target: T2, huBTN2A1 (human, UniProt Q7KYR7 29-248, limits assumed); assay: ELISA
T2 construct: Sourced antigen; construct not described; also called Human BTN2A1
T2 sequence (looked up): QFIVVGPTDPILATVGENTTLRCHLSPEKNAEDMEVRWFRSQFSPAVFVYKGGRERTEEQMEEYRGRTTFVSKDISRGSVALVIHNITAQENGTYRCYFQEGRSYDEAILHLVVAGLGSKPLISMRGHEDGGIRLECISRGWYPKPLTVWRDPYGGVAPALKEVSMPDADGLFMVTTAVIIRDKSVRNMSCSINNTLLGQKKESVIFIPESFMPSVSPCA

[3] = molecular target: T3, Murine B7-H4-Fc (Mouse B7H4 ECD, Fc_6His) (mouse, UniProt Q7TSP5 25-257); assay: HTRF binding, murine IgG1
T3 construct: extracellular domain; also called mouse B7-H4-Fc; FcHis6 tagged murine B7-H4
T3 sequence (Q7TSP5 whole entry, looked up): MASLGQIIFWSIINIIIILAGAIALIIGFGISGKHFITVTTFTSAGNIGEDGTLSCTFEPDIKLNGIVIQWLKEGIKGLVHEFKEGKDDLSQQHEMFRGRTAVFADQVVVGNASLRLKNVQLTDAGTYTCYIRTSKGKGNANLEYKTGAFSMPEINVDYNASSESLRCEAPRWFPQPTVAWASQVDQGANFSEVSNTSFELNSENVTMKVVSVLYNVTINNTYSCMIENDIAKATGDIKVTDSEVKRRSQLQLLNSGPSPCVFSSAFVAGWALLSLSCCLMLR

[4] = molecular target: T4, huHHLA2 (human, UniProt Q9UM44 23-344); assay: ELISA, absorbance 450 nm, antigen human HHLA2 GST
T4 construct: Sourced antigen; construct not described; also called Human HHLA2
T4 sequence (looked up): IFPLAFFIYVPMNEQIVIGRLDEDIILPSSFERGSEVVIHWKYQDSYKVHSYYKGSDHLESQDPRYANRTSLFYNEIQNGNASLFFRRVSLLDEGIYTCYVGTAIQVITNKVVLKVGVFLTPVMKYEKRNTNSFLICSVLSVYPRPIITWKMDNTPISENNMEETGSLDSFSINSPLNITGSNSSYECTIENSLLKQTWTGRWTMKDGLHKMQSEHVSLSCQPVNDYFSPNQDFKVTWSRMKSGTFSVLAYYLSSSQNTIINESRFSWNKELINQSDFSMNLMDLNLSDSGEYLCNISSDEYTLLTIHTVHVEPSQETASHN

[5] = molecular target: T5, huBTN3A2 (human, UniProt P78410 30-248, limits assumed); assay: ELISA, absorbance 450 nm, antigen human BTN3A2 GST
T5 construct: Sourced antigen; construct not described; also called Human BTN3A2

[6] = molecular target: T6, Human B7-H4-Fc (Human B7H4 ECD, Fc_6His) (human); assay: HTRF binding, murine IgG1
T6 construct: also called FcHis6 tagged human B7-H4
T6 sequence (Q7Z7D3 whole entry, looked up): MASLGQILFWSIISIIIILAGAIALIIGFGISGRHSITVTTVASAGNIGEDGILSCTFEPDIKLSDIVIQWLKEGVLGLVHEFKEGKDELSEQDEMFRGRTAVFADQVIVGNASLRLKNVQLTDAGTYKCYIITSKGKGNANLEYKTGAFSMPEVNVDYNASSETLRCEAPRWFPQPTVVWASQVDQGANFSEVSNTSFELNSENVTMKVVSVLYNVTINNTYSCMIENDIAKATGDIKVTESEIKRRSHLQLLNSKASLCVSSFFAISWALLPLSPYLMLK

[7] = molecular target: T7, Cyno B7-H4-Fc (Cyno B7H4 ECD, FcTM_6His) (cynomolgus monkey); assay: HTRF binding, murine IgG1
T7 construct: extracellular domain; also called cynomolgus B7-H4-Fc

[8] = molecular target: T8, huB7-H1 (human, UniProt Q9NZQ7 19-238); assay: ELISA, absorbance 450 nm, antigen human B7-H1(ECD) F10H
T8 construct: Sourced antigen; construct not described; also called Human B7-H1

[9] = molecular target: T9, huB7-H3 (human, UniProt Q5ZPR3 29-461, limits assumed); assay: ELISA, absorbance 450 nm, antigen human B7-H3 (ECD) Fc
T9 construct: Sourced antigen; construct not described; also called Human B7-H3
T9 sequence (looked up): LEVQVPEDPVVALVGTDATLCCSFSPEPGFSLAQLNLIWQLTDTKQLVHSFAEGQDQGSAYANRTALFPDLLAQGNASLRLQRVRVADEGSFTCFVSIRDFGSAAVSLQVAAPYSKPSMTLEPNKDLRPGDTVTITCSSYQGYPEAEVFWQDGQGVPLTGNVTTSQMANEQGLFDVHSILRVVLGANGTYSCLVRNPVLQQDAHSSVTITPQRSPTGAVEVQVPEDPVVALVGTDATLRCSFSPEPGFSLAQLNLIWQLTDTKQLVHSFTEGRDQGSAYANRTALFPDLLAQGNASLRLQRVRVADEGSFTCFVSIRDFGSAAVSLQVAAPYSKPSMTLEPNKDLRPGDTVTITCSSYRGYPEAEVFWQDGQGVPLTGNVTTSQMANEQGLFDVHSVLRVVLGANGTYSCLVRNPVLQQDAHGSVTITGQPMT

[10] = molecular target: T10, huBTN1A1 (human, UniProt Q13410 27-242, limits assumed); assay: ELISA, absorbance 450 nm, antigen human BTN1A1 GST
T10 construct: Sourced antigen; construct not described; also called Human BTN1A1
T10 sequence (looked up): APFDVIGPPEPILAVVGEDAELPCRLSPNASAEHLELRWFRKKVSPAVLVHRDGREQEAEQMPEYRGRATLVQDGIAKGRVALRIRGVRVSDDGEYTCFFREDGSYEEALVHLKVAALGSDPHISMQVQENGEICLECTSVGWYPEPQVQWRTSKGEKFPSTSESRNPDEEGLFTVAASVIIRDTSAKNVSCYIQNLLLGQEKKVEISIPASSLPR

[11] = molecular target: T11, huB7-H2 (human, UniProt O75144 19-258); assay: ELISA, absorbance 450 nm, antigen human B7-H2 (ECD) F10H
T11 construct: Sourced antigen; construct not described; also called Human B7-H2
T11 sequence (looked up): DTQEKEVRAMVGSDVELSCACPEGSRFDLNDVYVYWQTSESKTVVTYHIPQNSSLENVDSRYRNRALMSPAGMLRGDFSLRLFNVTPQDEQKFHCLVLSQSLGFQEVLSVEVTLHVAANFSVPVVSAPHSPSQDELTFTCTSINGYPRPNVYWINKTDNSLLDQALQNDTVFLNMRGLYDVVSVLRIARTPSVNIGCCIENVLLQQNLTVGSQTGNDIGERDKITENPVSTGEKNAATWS

[12] = molecular target: T5, huBTN3A2; assay: ELISA
[13] = molecular target: T9, huB7-H3; assay: ELISA
[14] = molecular target: T11, huB7-H2; assay: ELISA
[15] = molecular target: T10, huBTN1A1; assay: ELISA
[16] = molecular target: T8, huB7-H1; assay: ELISA
[17] = molecular target: T4, huHHLA2; assay: ELISA
[18] = molecular target: T12, Murine B7-H4 ECD-Flag-His10 (monomeric) (mouse, UniProt Q7TSP5 25-257); assay: Octet BLI, hIgG1-TM on Protein G (n = 4-7)
T12 construct: extracellular domain; also called FlagHis10 murine B7-H4
T12 sequence (looked up): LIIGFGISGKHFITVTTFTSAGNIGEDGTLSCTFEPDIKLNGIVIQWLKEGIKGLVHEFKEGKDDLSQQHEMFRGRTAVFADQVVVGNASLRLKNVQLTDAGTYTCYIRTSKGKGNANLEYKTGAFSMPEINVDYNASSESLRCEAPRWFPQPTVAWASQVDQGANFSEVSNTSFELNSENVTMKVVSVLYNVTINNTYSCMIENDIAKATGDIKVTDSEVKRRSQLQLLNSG

[19] = molecular target: T13, Human B7H4 ECD (SV), splice variant, 10His_FLAG (human); assay: Octet BLI, hIgG1-TM on Protein G (n = 4-7)
T13 construct: also called B7-H4-SV

[20] = molecular target: T14, Human B7-H4 ECD-Flag-His10 (monomeric) (human, UniProt Q7Z7D3 25-259); assay: Octet BLI, hIgG1-TM on Protein G (n = 4-7)
T14 construct: Minimally biotinylated for KinExA; also called hB7H4-ECD-Flag-His10; B7-H4-FLAG
T14 sequence: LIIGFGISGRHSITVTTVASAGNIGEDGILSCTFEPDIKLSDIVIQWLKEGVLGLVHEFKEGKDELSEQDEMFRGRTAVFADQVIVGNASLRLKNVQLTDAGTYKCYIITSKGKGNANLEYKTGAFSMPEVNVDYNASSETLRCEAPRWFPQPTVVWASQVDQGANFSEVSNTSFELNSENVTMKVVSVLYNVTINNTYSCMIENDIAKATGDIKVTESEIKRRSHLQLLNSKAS

[21] = molecular target: T14, Human B7-H4 ECD-Flag-His10 (monomeric); assay: Octet; summary table, rounded from Table 9 (hIgG1-TM)
[22] = molecular target: T15, human B7-H4 on cells (human, UniProt Q7Z7D3 25-282); assay: cell-based or functional assay
T15 sequence: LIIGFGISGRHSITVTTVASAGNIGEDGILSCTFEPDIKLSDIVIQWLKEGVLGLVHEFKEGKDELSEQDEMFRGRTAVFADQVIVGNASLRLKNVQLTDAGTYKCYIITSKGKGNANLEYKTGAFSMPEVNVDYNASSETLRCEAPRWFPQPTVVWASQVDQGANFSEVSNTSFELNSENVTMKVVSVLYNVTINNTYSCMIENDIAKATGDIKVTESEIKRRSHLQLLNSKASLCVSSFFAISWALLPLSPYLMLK

[23] = molecular target: T12, Murine B7-H4 ECD-Flag-His10 (monomeric); assay: Octet; summary table, repeats Table 9 (hIgG1-TM)
[24] = molecular target: T13, Human B7H4 ECD (SV), splice variant, …; assay: Octet; summary table, repeats Table 9 (hIgG1-TM)

T8 sequence (Q9NZQ7 19-238 limits assumed): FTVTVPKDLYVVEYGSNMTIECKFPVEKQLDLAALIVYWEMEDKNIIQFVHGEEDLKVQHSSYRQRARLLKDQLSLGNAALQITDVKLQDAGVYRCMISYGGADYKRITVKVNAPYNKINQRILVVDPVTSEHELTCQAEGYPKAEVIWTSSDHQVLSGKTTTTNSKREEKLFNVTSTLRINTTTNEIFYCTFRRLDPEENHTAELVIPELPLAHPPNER
T5 sequence (P78410 30-248 limits assumed): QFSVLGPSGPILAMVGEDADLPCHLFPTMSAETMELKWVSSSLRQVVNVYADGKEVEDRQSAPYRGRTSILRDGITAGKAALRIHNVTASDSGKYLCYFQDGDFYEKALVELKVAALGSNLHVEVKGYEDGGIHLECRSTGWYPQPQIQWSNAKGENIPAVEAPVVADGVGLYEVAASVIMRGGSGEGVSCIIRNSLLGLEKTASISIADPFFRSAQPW

B1: ZY0EP0-C07 murine IgG1 (antibody, V domains shown)
VH: QVQLVESGGVLVKPGGSLRLSCAASGFTLSDYYMSWIRQAPGMGLEWVSYISSSGSTIYYTDSVKGRFTISRDSAKNSLYLQMNSLRAEDTAVYYCARDGVGFDYWGQGTLVTVSS
VL: EIVLTQSPGTLSLFPGERATLSCRASQSVSSSYLAWYQQKPGQSPRLLIYAASSRATGIPDRFSGSGSGTDFTLTISRLEPEDFAVYYCQQYGSSPLYTFGQGTKLEIK
notes: also called ZY0EPO-C07
Q: Does B1 bind [1]?
A: no binding

Q: Does B1 bind [2]?
A: no binding

Q: And the EC50 [3]?
A: 0.49 nM

Q: And the Max [3]?
A: 1910

Q: Does B1 bind [4]?
A: no binding (tested: about 10 µg/ml (antigen))

Q: Does B1 bind [5]?
A: no binding (tested: about 10 µg/ml (antigen))

Q: What about the EC50 [6] of the same binder?
A: 0.95 nM

Q: What about the Max [6] of the same binder?
A: 1740

Q: And the EC50 [7]?
A: 1.28 nM

Q: What about the Max [7] of the same binder?
A: 1250

Q: Does B1 bind [8]?
A: no binding (tested: 10 µg/ml (antigen))

Q: Does B1 bind [9]?
A: no binding

Q: Does B1 bind [10]?
A: no binding (tested: 10 µg/ml (antigen))

Q: Does B1 bind [11]?
A: no binding (tested: 10 µg/ml (antigen))

B2: ZY0EO5-E07 human IgG1-TM (antibody, V domains shown)
VH: QVQLQESGPGLVKPSQTLSLTCTVSGGSISSGGYYWSWIRQHPGKGLEWIGNIYYSGSTYYNPSLKSRVTISVDTSKNQFSLKLSSVTAADTAVYYCAREKALASVIPSGYENYYVVDVWGQGTTVTVSS
VL: DIQLTQSPSFLSASVGGRVTITCWASQGIAGYLAWYQQKPGKAPKLLIYAASTLQSGVPSRFSGSGSGTEFTLTISSLQPEDFATYYCQHLNSYPLTFGGGTKVEIK
notes: also called ZY0E05-E07; E05-E07
Q: Does B2 bind [12]?
A: no binding

Q: Does B2 bind [13]?
A: no binding

Q: Does B2 bind [14]?
A: no binding

Q: Does B2 bind [15]?
A: no binding

Q: Does B2 bind [1]?
A: no binding

Q: Does B2 bind [16]?
A: no binding

Q: Does B2 bind [2]?
A: no binding

Q: Does B2 bind [17]?
A: no binding

Q: And the Kd [18]?
A: 30 nM

Q: What about the koff [18] of the same binder?
A: 0.000361 s⁻¹

Q: What about the kon [18] of the same binder?
A: 12100 M⁻¹ s⁻¹

Q: And the Kd [19]?
A: 264 nM

Q: And the koff [19]?
A: 0.000499 s⁻¹

Q: And the kon [19]?
A: 1890 M⁻¹ s⁻¹

Q: What about the Kd [20] of the same binder?
A: 19.8 nM

Q: And the koff [20]?
A: 0.000338 s⁻¹

Q: And the kon [20]?
A: 17100 M⁻¹ s⁻¹

Q: What about the Kd [21] of the same binder?
A: 20 nM

Q: And the “ZAP % Viability, OVCAR4” value [22]?
A: 58%

Q: What about the “ZAP % Viability, SKBR3” value [22] of the same binder?
A: 79%

Q: And the Kd [23]?
A: 30 nM

Q: And the Kd [24]?
A: 264 nM
